Laboratory results from IntAct's records for PubMed 22879593.

Columns and labels:
USH1C, Q9Y6N9-1 [1] = target: USH1C, Q9Y6N9-1
USH1C, Q9Y6N9-1 [2] = target: USH1C, Q9Y6N9-1; remark: listed apart in the source

Sequence of USH1C, Q9Y6N9-1 (Q9Y6N9 whole entry): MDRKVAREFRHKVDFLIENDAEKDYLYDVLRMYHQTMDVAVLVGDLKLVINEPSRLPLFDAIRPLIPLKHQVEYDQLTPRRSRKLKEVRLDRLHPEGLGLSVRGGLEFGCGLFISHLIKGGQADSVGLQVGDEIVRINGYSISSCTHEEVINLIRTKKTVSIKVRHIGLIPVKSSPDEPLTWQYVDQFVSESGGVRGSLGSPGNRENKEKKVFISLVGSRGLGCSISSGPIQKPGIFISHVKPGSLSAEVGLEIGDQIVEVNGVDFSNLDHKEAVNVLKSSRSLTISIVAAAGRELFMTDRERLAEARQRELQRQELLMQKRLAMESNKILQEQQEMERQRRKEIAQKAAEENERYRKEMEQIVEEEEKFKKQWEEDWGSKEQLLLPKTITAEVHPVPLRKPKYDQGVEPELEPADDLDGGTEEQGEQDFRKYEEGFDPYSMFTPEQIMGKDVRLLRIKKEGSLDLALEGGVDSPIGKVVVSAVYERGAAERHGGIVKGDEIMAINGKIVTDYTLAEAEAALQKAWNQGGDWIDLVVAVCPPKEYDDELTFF

Row | Substance | effect of a mutation on the interaction (USH1C, Q9Y6N9-1 [1]) | effect of a mutation on the interaction (USH1C, Q9Y6N9-1 [2])
1 | Cadherin-23 (Homo sapiens), Q9H251 L3188Q;L3215Q | disrupting interaction strength | 
2 | Cadherin-23 (Homo sapiens), Q9H251 L3215Q |  | decreasing interaction strength
3 | Cadherin-23 (Homo sapiens), Q9H251 L3219Q |  | decreasing interaction strength
4 | Cadherin-23 (Homo sapiens), Q9H251 L3223Q |  | with no effect
5 | Cadherin-23 (Homo sapiens), Q9H251 L3225Q |  | with no effect
6 | Cadherin-23 (Homo sapiens), Q9H251 L3228Q |  | with no effect
7 | Cadherin-23 (Homo sapiens), Q9H251 Y3222E |  | decreasing interaction strength
